Values of other authors in publication PMC2635555.

Target: Histone H3 (H3K4me0) N-terminal tail (Homo sapiens) (UniProt P68431)

Sequence of AIRE PHD1 (O43918 296-343): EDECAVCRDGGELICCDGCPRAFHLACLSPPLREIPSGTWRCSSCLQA

Which Kd does the source give for AIRE PHD1 (from UniProt O43918) here?
Its Kd is 5 µM.
